Source: patent US7897573B2, “Selective VPAC2 receptor peptide agonists” (priority 2005, dated 2011)

What was measured:
Human VPAC1 Receptor = biological target: T1, Human VPAC1 Receptor (Homo sapiens, UniProt P32241); assay: Filter binding assay, 125I-labeled VIP, membranes of cells transiently transfected with human VPAC1; settings: 125I-labeled VIP tracer
T1 construct: expressed in transfected cells
T1 sequence (P32241 31-457): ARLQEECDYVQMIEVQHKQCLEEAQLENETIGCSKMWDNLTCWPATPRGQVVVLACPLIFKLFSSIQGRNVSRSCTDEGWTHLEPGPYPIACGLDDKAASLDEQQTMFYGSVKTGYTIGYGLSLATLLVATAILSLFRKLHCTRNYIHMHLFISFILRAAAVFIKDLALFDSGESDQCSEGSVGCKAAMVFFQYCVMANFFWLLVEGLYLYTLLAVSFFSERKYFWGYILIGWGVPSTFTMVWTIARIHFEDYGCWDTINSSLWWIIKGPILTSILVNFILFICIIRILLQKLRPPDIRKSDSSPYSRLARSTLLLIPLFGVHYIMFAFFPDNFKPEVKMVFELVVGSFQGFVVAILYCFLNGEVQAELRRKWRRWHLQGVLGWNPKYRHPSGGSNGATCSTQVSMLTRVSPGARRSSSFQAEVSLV
Protocol: (§1) For this assay, the solutions and equipment include:
(§2) Presoak solution: 0.5% Polyethyleneamine in Aqua dest
(§3) Buffer for flushing filter plates: 25 mM HEPES pH 7.4
(§4) Blocking buffer: 25 mM HEPES pH 7.4; 0.2% protease free BSA
(§5) Assay buffer: 25 mM HEPES pH 7.4; 0.5% protease free BSA
(§6) Dilution and assay plate: PS-Microplate, U form
(§7) Filtration Plate Multiscreen FB Opaque Plate; […] Type B Glasfiber filter
(§8) In order to prepare the filter plates, the presoak solution is aspirated by vacuum filtration. The plates are flushed twice with 200 μL flush buffer. 200 μL blocking buffer is added to the filter plate. The filter plate is then incubated with 200 μL presoak solution for 1 hour at room temperature.
(§9) The assay plate is filled with 25 μL assay buffer, 25 μL membranes (2.5 μg) suspended in assay buffer, 25 μL agonist in assay buffer, and 25 μL tracer (about 40000 cpm) in assay buffer. The filled plate is incubated for 1 hour with shaking.
(§10) The transfer from assay plate to filter plate is conducted. The blocking buffer is aspirated by vacuum filtration and washed two times with flush buffer. 90 μL is transferred from the assay plate to the filter plate. The 90 μL transferred from assay plate is aspirated and washed three times with 200 μL flush buffer. The plastic support is removed. It is dried for 1 hour at 60° C. 30 μL Microscint is added. The count is performed.

Human PAC1 Receptor = biological target: T2, Human PAC1 Receptor (Homo sapiens, UniProt P41586); assay: Filter binding assay, 125I-labeled PACAP-27, membranes of cells transiently transfected with human PAC1; settings: 125I-labeled PACAP-27 tracer
T2 construct: expressed in transfected cells
T2 sequence (P41586 21-468): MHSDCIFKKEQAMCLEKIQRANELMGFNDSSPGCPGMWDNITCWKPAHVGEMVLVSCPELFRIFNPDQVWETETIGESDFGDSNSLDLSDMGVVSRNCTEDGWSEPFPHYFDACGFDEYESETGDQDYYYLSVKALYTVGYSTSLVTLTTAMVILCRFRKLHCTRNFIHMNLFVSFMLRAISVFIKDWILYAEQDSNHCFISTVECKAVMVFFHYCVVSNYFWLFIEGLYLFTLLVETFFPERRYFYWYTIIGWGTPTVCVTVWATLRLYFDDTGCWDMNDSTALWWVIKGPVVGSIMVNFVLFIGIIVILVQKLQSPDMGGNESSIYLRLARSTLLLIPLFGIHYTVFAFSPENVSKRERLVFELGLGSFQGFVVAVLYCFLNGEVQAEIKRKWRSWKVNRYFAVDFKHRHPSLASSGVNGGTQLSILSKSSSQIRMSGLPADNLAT
Protocol: as §1, §2, §3, §4, §5, §6, §7, §8, §9, §10

[1] = Pharmacokinetic profiles of PEGylated peptides in Fisher 344 rats; assay type: in vivo, rat; settings: 100 μg agonist/kg, plasma RIA, mean N = 3
Protocol: Pharmacokinetic profiles of PEGylated peptides. Healthy Fisher 344 rats (3 animals per group) were injected with 100 μg agonist/kg (agonist amount based on peptide content and dissolved in PBS buffer). Blood samples were drawn 3, 12, 24, 48, 72, 96 and 168 hour post dosing and the peptide content in plasma was analysed by a radio-immunoassay (RIA) directed against the N-terminus of the peptide. PK parameters were then calculated using a model-independent method (WinNonlin Pro, Pharsight Corp., Mountain View, Calif., USA).

[2] = Rat serum stability study (DiscoveRx cAMP read-out on CHO-VPAC2 cells); settings: EC50, 4° C./EC50, 37° C., values >100% may represent release of intact peptide from the PEG conjugate; for 24 h stab (%): 24 h in rat serum at 37° C.
Protocol: In order to determine the stability of VPAC2 receptor peptide agonists in rat serum, CHO-VPAC2 cells clone #6 (96 well plates/50,000 cells/well and 1 day culture), PBS 1× (Gibco), the peptides for the analysis in a 100 μM stock solution, rat serum from a sacrificed normal Wistar rat, aprotinin, and a DiscoveRx assay kit are obtained. The rat serum is stored at 4° C. until use and is used within two weeks.
The aliquot is stored with aprotinin at 4° C. The aliquot is stored without aprotinin at 37° C. The aliquots are incubated for 24 or 72 hours.
On Day 1, after incubation of the aliquots prepared on day 0 for 24 or 72 hours, an incubation buffer containing PBS+1.3 mM CaCl2, 1.2 mM MgCl2, 2 mM glucose, and 0.25 mM IBMX is prepared. A plate with 11 serial 5× dilutions of peptide for the 4° C. and 37° C. aliquot is prepared for each peptide studied. […] The plate(s) are washed with cells twice in incubation buffer. The plates are allowed to hold 50 μL incubation media per well for 15 minutes. 50 μL solution per well is transferred to the cells from the plate prepared with 11 serial 5× dilutions of peptide for the 4° C. and 37° C. aliquot for each peptide studied, using the maximal concentrations that are indicated by the primary screen, in duplicate. This step dilutes the peptide concentration by a factor of two. The cells are incubated at room temperature for 30 minutes. The supernatant is removed. 40 μL/well of the DiscoveRx antibody/extraction buffer is added. The cells are incubated on the shaker (300 rpm) for 1 hour. Normal procedure with the DiscoveRx kit is followed. cAMP standards are included in column 12. EC50 values are determined from the cAMP assay data.

Substance	IC50 (Human VPAC1 Receptor)	IC50 (Human PAC1 Receptor)	24 h stab (%) [2]	also measured
C6-HSDAVFTEQY(OMe)TOrnLRAibQLAbuAAibOrnYLQSIOrnOrnGGPSSGAPPPC(PEG20K)C(PEG20K)-NH2 (HSDAVFTEQYTXLRXQLXAXXYLQSIXXGGPSSGAPPPCC; C6 acyl, non-natural residues, two PEG20K, C-terminal amide; Synthetic sequence PEGylated VPAC2 receptor agonist) [Agonist P590]	> 25000 nM	> 25000 nM		
C6-HSDAVFTEQY(OMe)TOrnLRAibQLAAbuAibOrnYLQSIOrnOrnC(PEG20K)GGPSSGAPPPC(PEG20K)-NH2 (HSDAVFTEQYTXLRXQLAXXXYLQSIXXCGGPSSGAPPPC; C6 acyl, two PEG20K, C-terminal amide; Synthetic sequence PEGylated VPAC2 receptor agonist) [Agonist P572]	> 25000 nM	> 25000 nM		
C6-HSDAVFTEQY(OMe)TOrnLRAibQLAAbuAibOrnYLQSIOrnC(PEG40K)OrnGGPSSGAPPPS-NH2 (HSDAVFTEQYTXLRXQLAXXXYLQSIXCXGGPSSGAPPPS; C6 acyl, PEG40K on Cys, C-terminal amide; Synthetic sequence PEGylated VPAC2 receptor agonist) [Agonist P539]			123%	AUC0-last [1]: 4013 ng·h/mL; Cl/F [1]: 0.417 mL/min/kg; Cmax [1]: 102 ng/mL; Tmax [1]: 24 h; T½ [1]: 15 h
C6-HSDAVFTEQY(OMe)TOrnLRAibQLAAbuAibOrnYLQAibIOrnOrnC(PEG20K)GGPSSGAPPPC(PEG20K)-NH2 (HSDAVFTEQYTXLRXQLAXXXYLQXIXXCGGPSSGAPPPC; C6 acyl, non-natural residues, two PEG20K, C-terminal amide; Synthetic sequence PEGylated VPAC2 receptor agonist) [Agonist P580]	> 25000 nM	> 25000 nM		
C6-HSDAVFTEQY(OMe)TOrnLRAibQC(PEG40K)AAbuAibOrnYLQAibIOrnOrnGGPSSGAPPPS-NH2 (HSDAVFTEQYTXLRXQCAXXXYLQXIXXGGPSSGAPPPS; C6 acyl, PEG40K on Cys, C-terminal amide; Synthetic sequence PEGylated VPAC2 receptor agonist) [Agonist P545]	> 25000 nM	> 25000 nM		AUC0-last [1]: 12737 ng·h/mL; Cl/F [1]: 0.12 mL/min/kg; Cmax [1]: 139 ng/mL; Tmax [1]: 72 h; T½ [1]: 43 h
C6-HSDAVFTEQY(OMe)TOrnLRAibQLAAbuAibOrnYAibQSIOrnOrnGGPSSGAPPPC(PEG20K)C(PEG20K)-NH2 (HSDAVFTEQYTXLRXQLAXXXYXQSIXXGGPSSGAPPPCC; C6 acyl, two PEG20K, C-terminal amide; Synthetic sequence PEGylated VPAC2 receptor agonist) [Agonist P521]				AUC0-last [1]: 7633 ng·h/mL; Cl/F [1]: 0.217 mL/min/kg; Cmax [1]: 233 ng/mL; Tmax [1]: 12 h; T½ [1]: 19 h; 72 h stab (%) ([2]; 72 h in rat serum at 37° C.): 294%
C6-HSDAVFTEQY(OMe)TRAibRAibQLAAAibOrnY(OMe)LQSIKAibOrnGGPSSGAPPPC(PEG40K)-NH2 (HSDAVFTEQYTRXRXQLAAXXYLQSIKXXGGPSSGAPPPC; C6 acyl; PEG40K; non-natural residues; amide; Synthetic sequence PEGylated VPAC2 receptor peptide agonist) [Agonist P417]	> 25000 nM		265%	
C6-HSDAVFTEQY(OMe)TOrnLRAibQLAAbuAibOrnY(OMe)LQSIOrnOrnGGPSSGAPPPC(PEG20K)C(PEG20K)-NH2 (HSDAVFTEQYTXLRXQLAXXXYLQSIXXGGPSSGAPPPCC; C6 acyl, non-natural residues, two PEG20K, C-terminal amide; Synthetic sequence PEGylated VPAC2 receptor agonist) [Agonist P582]	> 25000 nM	> 25000 nM		
C6-HSDAYFTEQY(OMe)TOrnLRAibQLAAbuAibOrnYLQSIOrnK(CO(CH2)2SPEG20K)OrnGGPSSGAPPPC(PEG20K)-NH2 [Agonist P551]	> 25000 nM	> 25000 nM		
C6-HSDAVFTEQY(OMe)TOrnLRAibQLAAbuAibOrnYLQAibIOrnC(PEG20K)OrnGGPSSGAPPPC(PEG20K)-NH2 (HSDAVFTEQYTXLRXQLAXXXYLQXIXCXGGPSSGAPPPC; C6 acyl, two PEG20K, C-terminal amide; Synthetic sequence PEGylated VPAC2 receptor agonist) [Agonist P553]	> 25000 nM	> 25000 nM		
C6-HSDAVFTEQY(OMe)TOrnLRC(PEG40K)QVAAAibOrnYLQSIOrnOrnGGPSSGAPPPS-NH2 (HSDAVFTEQYTXLRCQVAAXXYLQSIXXGGPSSGAPPPS; N-terminal C6 acyl, PEG40K on Cys, C-terminal amide; Synthetic sequence PEGylated VPAC2 receptor agonist) [Agonist P483]	> 25000 nM		22%	
C6-HSDAVFTEQY(OMe)TOrnLRAibQLAAbuAibOrnYLQAibIOrnC(PEG40K)OrnGGPSSGAPPPS-NH2 (HSDAVFTEQYTXLRXQLAXXXYLQXIXCXGGPSSGAPPPS; C6 acyl, PEG40K on Cys, C-terminal amide; Synthetic sequence PEGylated VPAC2 receptor agonist) [Agonist P537]	> 25000 nM	> 25000 nM		
C6-HSDAVFTEQY(OMe)TOrnLRAibQVAK(CO(CH2)2SPEG20K)AibOrnYLQSIOrnOrnGGPSSGAPPPC(PEG20K)-NH2 (HSDAVFTEQYTXLRXQVAXXXYLQSIXXGGPSSGAPPPC; C6 acyl, two PEG20K, C-terminal amide; Synthetic sequence PEGylated VPAC2 receptor agonist) [Agonist P492]			131%	
C6-HSDAVFTEQY(OMe)TOrnLRAibQVAAAibK(CO(CH2)2SPEG20K)YLQSIOrnOrnGGPSSGAPPPS-NH2 (HSDAVFTEQYTXLRXQVAAXXYLQSIXXGGPSSGAPPPS; C6 acyl; PEG20K; non-natural residues; amide; Synthetic sequence PEGylated VPAC2 receptor peptide agonist) [Agonist P473]	> 25000 nM		86%	
